The assay concerns the target wild-type human dopamine transporter (human) (UniProt Q01959).
Sequence of UniProt Q01959 (Q01959 whole entry): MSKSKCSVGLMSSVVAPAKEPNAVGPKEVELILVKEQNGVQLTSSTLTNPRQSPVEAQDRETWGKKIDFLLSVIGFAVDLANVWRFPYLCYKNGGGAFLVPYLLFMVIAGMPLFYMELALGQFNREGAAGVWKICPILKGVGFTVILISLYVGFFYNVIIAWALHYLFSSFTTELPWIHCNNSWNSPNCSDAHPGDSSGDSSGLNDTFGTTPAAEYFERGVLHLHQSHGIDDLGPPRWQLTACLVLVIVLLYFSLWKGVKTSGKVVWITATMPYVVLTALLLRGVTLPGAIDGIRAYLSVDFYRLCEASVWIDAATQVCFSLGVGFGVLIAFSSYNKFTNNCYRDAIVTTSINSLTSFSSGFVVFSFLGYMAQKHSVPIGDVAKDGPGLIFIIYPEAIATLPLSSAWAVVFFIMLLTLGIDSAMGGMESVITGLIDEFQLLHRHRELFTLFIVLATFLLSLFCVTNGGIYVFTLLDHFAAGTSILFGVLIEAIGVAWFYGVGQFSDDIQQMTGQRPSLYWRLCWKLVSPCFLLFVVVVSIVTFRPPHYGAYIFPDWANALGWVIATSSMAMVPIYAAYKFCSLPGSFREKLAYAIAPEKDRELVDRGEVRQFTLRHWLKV

As for “recombinant HIV-1 Tat 1-86 (from UniProt P04608 1-86) (natural protein)”, the decrease of [3H]DA uptake in PC12 cells transfected with WT hDAT after 20 min preincubation with 140 nM Tat1-86, against control without Tat stood at 35%.

The values above are taken from PMC4890318.
